The record followed here is paper PMC9669019, “Molecular basis for integrin adhesion receptor binding to p21-activated kinase 4 (PAK4)” (Communications Biology, 2022).

Values joined by “and” are separate entries in the source; they are usually repeats but may differ in a detail not shown here. Equal values may be shown once. Ends that are not written are not given here. helical region = not defined here

One assay addresses T1, PAK4 catalytic domain (human, UniProt O96013 286-591).
T1 construct: the GFP-PAK4-cat of the pull-downs is 302-591; The His tag is cleavable by TEV protease; also called PAK4 kinase domain; source: E. coli BL21-CodonPlus(DE3)RILP, purified (HisTrap, Resource Q, Superdex 200)
In words: ITC; Nano-ITC, 25 °C, PBS pH 7.4; 407 µM integrin β5^743–799 in the syringe titrated into 44 or 72 µM PAK4cat in the sample cell; PAK4cat pre-incubated with 5 mM MgCl2 and 1 mM AMP-PNP; 20 injections of 2.5 µL. To be noted: both partners purified.

The target of assay [1] is T2, PAK4 catalytic domain, purified recombinant (PAK4-cat) (human, UniProt O96013 286-591).
T2 construct: catalytic domain of PAK4 (UniProt O96013); residues 300–589 built in PDB 7S48 chain A; His tag is cleavable by TEV protease; also called PAK4 kinase domain; wild-type PAK4; source: E. coli BL21-CodonPlus(DE3)RILP, purified (HisTrap, Resource Q, Superdex 200)
Put plainly: ITC; Nano-ITC, 25 °C, PBS pH 7.4; 407 µM integrin β5 743–799 in the syringe, 44 and 72 µM PAK4cat (pre-incubated with 5 mM MgCl2 and 1 mM AMP-PNP) in the cell; 20 injections of 2.5 µL. To be noted: both partners purified.

The target of assay [2] is T2, PAK4 catalytic domain, purified …. In words: cell-based or functional assay.
For assay [3] the target is unchanged. Put plainly: pull-down; His-tagged β5 tails on Ni-NTA beads; varying concentrations of purified PAK4-cat in buffer X-T, 2 h, 4 °C; apparent affinity, one-site specific-binding model, three independent experiments. The conditions noted are these: both partners purified.

T1 sequence (O96013 286-591): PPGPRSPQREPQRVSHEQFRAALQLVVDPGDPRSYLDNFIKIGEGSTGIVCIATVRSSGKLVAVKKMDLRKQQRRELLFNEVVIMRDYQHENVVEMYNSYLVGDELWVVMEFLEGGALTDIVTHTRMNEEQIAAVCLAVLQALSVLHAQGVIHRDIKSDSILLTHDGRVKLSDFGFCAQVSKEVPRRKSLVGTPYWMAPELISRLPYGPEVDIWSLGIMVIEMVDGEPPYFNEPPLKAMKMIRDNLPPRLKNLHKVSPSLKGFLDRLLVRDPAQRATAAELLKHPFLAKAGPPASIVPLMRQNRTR
T2 sequence (O96013 286-591): as above

B1: 6xHis integrin β5 full-length cytosolic peptide (residues 743–799) (domain or fragment, UniProt P18084 743-799, looked up)
chain: KLLVTIHDRREFAKFQSERSRARYEMASNPLYRKPISTHTVDFTFNKFNKSYNGTVD
modifications: also: 6xHis tag, position not given here
notes: also called integrin β5 cytoplasmic tail
As to B1, in the assay with PAK4 catalytic domain, the Kd is 5.1 µM and 4.8 µM; the “stoichiometry N” value is 1.4 and 0.7.

B2: 6xHis integrin β5 full-length cytosolic peptide (residues 743–799) (domain or fragment, UniProt P18084 743-799, looked up)
chain: KLLVTIHDRREFAKFQSERSRARYEMASNPLYRKPISTHTVDFTFNKFNKSYNGTVD
modifications: also: 6xHis tag, position not given here
notes: subcloned into a pET32 vector
On to B2, for which, in assay [1], the Kd is 4.95 ± 1.5 µM, the dH is -2.02 ± 0.179 kcal/mol and the “stoichiometry N” value came out at 1.05 ± 0.35.

For Ac-ERSRARYEMAS-NH2 [integrin β5 peptide, residues Glu760-Ser770], the “inhibition of PAK4 phosphorylation of a LIMK1 10mer peptide (…, 50 µM) in a radioactive in vitro kinase assay, β5 peptide 0–1024 µM, 1 mg/ml BSA: IC50” value in assay [2] worked out at 160 µM.

B3: His-tagged recombinant model of the integrin β5 cytoplasmic tail (domain or fragment)
chain: {His‑tag-helical region-Gly4}-KLLVTIHDRREFAKFQSERSRARYEMASNPLYRKPISTHTVDFTFNKFNKSYNGTVD
modifications: not fully specified; reading uncertain
Regarding B3, in assay [3], the Kd is around 1.8 µM.
